Tests used:
human ROR1 = target: T1, human ROR1 (human, UniProt Q01973 30-937); assay: flow cytometry (FACS) on CHO cells stably expressing full-length human ROR1
T1 construct: whole, on cells; also called full-length human ROR1 on CHO cells; ROR1-CHO
Description: (§1) The tetra-specific GNC antibodies listed in TABLEs 3 and 4 were tested for binding to Chinese hamster ovary cells (CHO) cells stably expressing a full-length human ROR1. Antibodies were prepared at 2× final concentration and titrated 1:5 across 3 wells of a 96 well plate in 50 ul of PBS/2% FBS and then 5,000 ROR1-CHO cells in 50 ul PBS/2% FBS were added. This mixture was incubated for 30 minutes on ice, washed once with 200 ul PBS/2% FBS, and then the secondary antibody PE Goat anti-Human IgG Fc at 1:1000 dilution of stock was added, and this mixture was incubated for 30 minutes on ice. Cells were washed 2×200 ul PBS/2% FBS, resuspended in 50 ul PBS/2% FBS and analyzed on a BD LSRFORTESSA and the binding profile is shown in FIG. 4.

human 4-1BB = target: T2, human 4-1BB (human, UniProt Q07011 24-255); assay: flow cytometry (FACS) on human 41BB transfected CHO cells
T2 construct: whole, on cells; also called human 41BB transfected CHO cells
Description: as §1, with “5. All of the tetra-specific GNC antibodies except for the control SI-27E12 contain a 41BB binding domain, 460C3, 420H5, or 466F6 and bound to 41BB expressing CHO cells with varying intensity.” for “4.”

human PD-L1 = target: T3, human PD-L1 (human, UniProt Q9NZQ7 19-290); assay: flow cytometry (FACS) on human PDL1 transfected CHO cells
T3 construct: whole, on cells; also called human PDL1 transfected CHO cells

Measured: binding result

T1 sequence (Q01973 30-937): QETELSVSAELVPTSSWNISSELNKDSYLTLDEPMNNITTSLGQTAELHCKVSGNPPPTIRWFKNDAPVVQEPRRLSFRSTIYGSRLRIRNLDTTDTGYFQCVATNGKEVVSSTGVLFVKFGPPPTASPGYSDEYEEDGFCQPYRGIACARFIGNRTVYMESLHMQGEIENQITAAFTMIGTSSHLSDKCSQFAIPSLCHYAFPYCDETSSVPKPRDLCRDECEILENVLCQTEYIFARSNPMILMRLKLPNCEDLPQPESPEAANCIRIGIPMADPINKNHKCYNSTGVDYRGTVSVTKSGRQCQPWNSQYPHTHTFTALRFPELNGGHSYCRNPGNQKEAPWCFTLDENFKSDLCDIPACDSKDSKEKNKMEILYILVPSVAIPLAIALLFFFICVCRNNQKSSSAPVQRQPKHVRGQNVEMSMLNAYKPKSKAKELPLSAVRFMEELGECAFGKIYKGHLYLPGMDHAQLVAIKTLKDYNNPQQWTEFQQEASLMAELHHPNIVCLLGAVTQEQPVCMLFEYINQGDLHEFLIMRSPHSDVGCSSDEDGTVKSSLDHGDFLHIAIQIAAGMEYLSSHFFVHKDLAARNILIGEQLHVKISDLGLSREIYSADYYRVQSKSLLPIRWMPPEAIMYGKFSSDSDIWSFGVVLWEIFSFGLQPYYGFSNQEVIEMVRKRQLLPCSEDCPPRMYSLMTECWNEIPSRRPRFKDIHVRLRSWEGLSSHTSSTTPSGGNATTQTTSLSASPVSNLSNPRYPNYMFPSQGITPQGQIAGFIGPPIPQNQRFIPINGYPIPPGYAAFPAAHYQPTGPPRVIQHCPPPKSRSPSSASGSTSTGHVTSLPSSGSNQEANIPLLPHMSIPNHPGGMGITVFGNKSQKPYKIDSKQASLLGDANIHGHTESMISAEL
T2 sequence (Q07011 24-255): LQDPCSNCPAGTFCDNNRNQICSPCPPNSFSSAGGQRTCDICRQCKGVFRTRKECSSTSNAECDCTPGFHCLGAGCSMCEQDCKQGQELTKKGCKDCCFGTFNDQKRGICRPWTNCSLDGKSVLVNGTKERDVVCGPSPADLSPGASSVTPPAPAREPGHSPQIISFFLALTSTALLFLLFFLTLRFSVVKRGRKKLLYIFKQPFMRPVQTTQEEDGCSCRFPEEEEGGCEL
T3 sequence (Q9NZQ7 19-290): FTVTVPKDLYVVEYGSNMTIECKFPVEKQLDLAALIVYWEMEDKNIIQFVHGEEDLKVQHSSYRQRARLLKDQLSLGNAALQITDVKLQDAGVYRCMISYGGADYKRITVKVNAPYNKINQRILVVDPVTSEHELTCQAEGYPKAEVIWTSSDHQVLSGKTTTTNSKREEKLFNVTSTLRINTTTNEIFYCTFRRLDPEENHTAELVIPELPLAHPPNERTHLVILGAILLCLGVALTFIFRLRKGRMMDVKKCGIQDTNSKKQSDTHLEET

B1: SI-35E18 (460C3-L1H1-scFv x PL230C6-Fab x 323H7-H4L1-scFv x 284A10-H1L1-scFv) (antibody)
heavy: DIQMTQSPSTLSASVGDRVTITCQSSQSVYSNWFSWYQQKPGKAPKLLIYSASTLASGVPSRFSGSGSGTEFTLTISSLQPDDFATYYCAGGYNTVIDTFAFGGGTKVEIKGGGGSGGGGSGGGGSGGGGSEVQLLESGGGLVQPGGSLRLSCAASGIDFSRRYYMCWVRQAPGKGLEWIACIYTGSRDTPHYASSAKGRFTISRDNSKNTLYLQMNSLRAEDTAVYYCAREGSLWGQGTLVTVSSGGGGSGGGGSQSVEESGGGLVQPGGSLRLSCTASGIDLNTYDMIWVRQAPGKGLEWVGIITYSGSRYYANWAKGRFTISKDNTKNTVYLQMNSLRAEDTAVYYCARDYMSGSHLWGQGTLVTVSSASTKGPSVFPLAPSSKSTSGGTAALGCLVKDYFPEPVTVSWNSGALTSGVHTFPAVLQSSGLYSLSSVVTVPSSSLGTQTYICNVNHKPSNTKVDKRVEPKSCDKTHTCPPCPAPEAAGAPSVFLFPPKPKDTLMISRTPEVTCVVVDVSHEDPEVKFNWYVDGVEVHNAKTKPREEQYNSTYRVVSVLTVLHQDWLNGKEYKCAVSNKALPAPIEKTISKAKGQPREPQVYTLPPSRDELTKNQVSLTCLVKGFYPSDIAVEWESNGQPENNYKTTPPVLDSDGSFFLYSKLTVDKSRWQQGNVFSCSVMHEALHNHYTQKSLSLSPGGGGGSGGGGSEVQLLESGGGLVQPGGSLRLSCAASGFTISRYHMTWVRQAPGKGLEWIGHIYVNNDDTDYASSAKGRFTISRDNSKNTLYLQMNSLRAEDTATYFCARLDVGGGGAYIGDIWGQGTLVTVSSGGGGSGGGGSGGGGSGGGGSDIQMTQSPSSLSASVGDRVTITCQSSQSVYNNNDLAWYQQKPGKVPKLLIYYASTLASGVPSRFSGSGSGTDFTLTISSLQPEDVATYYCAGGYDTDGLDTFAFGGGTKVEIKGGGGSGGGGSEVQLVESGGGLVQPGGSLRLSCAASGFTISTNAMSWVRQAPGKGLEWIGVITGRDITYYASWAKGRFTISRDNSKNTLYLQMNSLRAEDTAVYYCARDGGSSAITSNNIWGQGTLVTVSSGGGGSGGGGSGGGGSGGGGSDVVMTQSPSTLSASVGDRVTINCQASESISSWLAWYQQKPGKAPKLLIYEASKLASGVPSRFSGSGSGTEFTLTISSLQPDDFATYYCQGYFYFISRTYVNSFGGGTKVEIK
light: AYDMTQSPSSVSASVGDRVTIKCQASEDIYSFLAWYQQKPGKAPKLLIHSASSLASGVPSRFSGSGSGTDFTLTISSLQPEDFATYYCQQGYGKNNVDNAFGGGTKVEIKRTVAAPSVFIFPPSDEQLKSGTASVVCLLNNFYPREAKVQWKVDNALQSGNSQESVTEQDSKDSTYSLSSTLTLSKADYEKHKVYACEVTHQGLSSPVTKSFNRGEC
notes: Tetra-specific (4-1BB x PD-L1 x ROR1 x CD3) antibody with human IgG1 null2 Fc; also called tetra-specific GNC antibody
binds: all assays above

B2: SI-35E20 (466F6-L5H2-scFv x PL230C6-Fab x 323H7-H4L1-scFv x 284A10-H1L1-scFv) (antibody)
heavy: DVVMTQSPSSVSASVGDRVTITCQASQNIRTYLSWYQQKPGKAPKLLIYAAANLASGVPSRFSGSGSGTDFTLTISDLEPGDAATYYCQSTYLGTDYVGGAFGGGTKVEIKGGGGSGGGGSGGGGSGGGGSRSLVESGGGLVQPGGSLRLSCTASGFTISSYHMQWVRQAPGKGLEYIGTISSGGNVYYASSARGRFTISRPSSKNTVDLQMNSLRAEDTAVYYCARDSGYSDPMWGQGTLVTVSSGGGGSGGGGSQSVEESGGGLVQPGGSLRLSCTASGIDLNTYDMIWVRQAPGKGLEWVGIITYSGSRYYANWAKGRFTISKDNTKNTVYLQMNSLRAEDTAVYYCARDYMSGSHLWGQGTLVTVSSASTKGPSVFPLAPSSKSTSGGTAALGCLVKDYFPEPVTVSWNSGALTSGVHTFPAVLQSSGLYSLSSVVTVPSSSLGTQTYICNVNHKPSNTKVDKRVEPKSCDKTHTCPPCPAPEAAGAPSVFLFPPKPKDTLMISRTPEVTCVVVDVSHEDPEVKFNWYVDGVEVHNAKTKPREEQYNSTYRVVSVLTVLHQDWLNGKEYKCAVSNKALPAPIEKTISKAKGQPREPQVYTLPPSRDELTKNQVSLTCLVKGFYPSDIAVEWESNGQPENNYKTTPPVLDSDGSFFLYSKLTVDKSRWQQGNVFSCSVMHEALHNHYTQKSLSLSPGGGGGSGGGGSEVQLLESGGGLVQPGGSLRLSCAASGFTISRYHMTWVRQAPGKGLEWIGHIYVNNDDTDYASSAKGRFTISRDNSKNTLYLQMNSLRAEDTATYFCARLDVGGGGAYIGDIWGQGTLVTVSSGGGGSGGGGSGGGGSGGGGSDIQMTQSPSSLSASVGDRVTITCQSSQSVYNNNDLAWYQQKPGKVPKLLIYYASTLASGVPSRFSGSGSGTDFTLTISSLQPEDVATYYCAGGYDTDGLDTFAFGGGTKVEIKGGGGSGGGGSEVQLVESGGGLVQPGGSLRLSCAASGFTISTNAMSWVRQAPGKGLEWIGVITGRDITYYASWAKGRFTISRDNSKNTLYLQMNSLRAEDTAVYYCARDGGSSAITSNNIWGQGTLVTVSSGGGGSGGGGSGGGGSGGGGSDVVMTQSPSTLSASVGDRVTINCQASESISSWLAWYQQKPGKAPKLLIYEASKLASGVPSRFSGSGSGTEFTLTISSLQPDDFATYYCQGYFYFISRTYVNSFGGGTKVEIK
light: B1 light
notes: as for B1
binds: all assays above
